Target: β-glucosidase with N-terminal K-coil and N-terminal His-tag (KG)

Question: For “human H chain ferritin with C-terminal E-coil, without the sequence of a His-tag (HE)”, which retention rate of relative enzyme activity of the KG-HE complex recovered in a magnetic field, after usage cycles 1 to 3 (93.8%, 82.5%, 56.3%); pH 4.5, 45 °C, 20 min is on record?
Answer: 93.8%

From PMC6915604
